PMC4751086 (2016)

Assays:
HD-PTP(1–361;T145R) = target: T1, HD-PTP(1–361;T145R) (human, UniProt Q9H3S7 1-361, T145R); assay: ITC
T1 sequence: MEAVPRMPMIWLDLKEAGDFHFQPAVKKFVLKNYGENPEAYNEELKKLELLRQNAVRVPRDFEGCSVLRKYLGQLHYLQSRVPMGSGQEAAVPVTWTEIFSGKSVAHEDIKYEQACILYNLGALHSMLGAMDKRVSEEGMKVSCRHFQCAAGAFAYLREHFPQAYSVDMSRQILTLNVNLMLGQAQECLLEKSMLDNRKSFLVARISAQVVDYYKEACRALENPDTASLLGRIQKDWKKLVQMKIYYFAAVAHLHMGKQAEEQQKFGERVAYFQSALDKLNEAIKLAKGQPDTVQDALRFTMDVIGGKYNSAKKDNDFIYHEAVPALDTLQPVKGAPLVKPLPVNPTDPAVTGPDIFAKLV

HD-PTP(1–361;T145K) = target: T2, HD-PTP(1–361;T145K) (human, UniProt Q9H3S7 1-361, T145K); assay: ITC
T2 sequence: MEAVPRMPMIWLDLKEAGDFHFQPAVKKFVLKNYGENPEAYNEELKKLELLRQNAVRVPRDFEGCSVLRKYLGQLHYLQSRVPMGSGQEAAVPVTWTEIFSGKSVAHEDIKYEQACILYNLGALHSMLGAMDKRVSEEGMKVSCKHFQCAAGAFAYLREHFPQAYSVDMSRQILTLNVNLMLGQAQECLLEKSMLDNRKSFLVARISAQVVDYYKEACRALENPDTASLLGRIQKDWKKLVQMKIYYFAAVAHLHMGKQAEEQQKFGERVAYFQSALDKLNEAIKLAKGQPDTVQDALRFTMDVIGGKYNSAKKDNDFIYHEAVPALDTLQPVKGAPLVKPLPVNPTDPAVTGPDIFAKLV

Kd (HD-PTP(1–361;T145R)): 3.89 µM | Kd (HD-PTP(1–361;T145K)): 4.02 µM
Binder: KEEEDDDMKELENWAGSM [CHMP4B(207–224)]
